Experimental data from the supplement of paper PMC12667976.

B1: library; numbered along this chain (parent)
chain: MATDAALRRLLRLHRTEIAVAVDSAFPLLHALADHDVVPEDKFQETLHLKEKEGCPQAFHALLSWLLTQDSTAILDFWRVLFKDYNLERYGRLQPILDSFPKDVDLSQPRKGRKPPAVPKALVPPPRLPTKRKASEEARAAAPAALTPRGTASPGSQLKAKPPKKPESSAEQQRLPLGNGIQTMSASVQRAVAMSSGDVPGARGAVEGILIQQVFESGGSKKCIQVGGEFYTPSKFEDSGSGKNKARSSSGPKPLVRAKGAQGAAPGGGEARLGQQGSVPAPLALPSDPQLHQKNEDECAVCRDGGELICCDGCPRAFHLACLSPPLREIPSGTWRCSSCLQATVQEVQPRAEEPRPQEPPVETPLPPGLRSAGEEVRGPPGEPLAGMDTTLVYKHLPAPPSAAPLPGLDSSALHPLLCVGPEGQQNLAPGARCGVCGDGTDVLRCTHCAAAFHWRCHFPAGTSRPGTGLRCRSCSGDVTPAPVEGVLAPSPARLAPGPAKDDTASHEPALHRDDLESLLSEHTFDGILQWAIQSMARPAAPFPS

Variants of: B1
Assay: AIRE transcriptional activation functional score (insulin promoter-GFP; nonsense median 0, synonymous median 1) (normalised score); higher = higher AIRE activity (more reporter activation)
Settings: with insulin promoter-GFP reporter in HEK293
Procedure, shortened: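 Codon-optimized AIRE NNN-codon libraries (three regions) were integrated by Bxb1 recombinase into Flp-In T-REx HEK293 landing-pad cells carrying an insulin core promoter-GFP reporter. Integrants (mCherry+, BFP−) sorted at day 7 were expanded 7 days; top 10% GFP and unselected integrant populations were tile-sequenced. Functional score is select versus non-select variant enrichment, wild-type subtracted. Variants needed 10 counts per million in non-select; scores were rescaled to nonsense median 0 and synonymous median 1, then averaged over biological replicates.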

AIRE transcriptional activation functional score: each site, then its substitutions
V348: E 0.956 | K 0.974 | L 1.09 | F 1 | S 0.865 | W 1.37 | G 1.04 | Q 0.65 | M 0.509 | A 1.1 | H 1.33 | R 1.19 | C 0.781 | T 1.04 | N 1.08 | I 1.08 | P 0.929 | D 1.01 | Y 0.929
Q346: W 1.73 | V 0.378 | F 0.819 | M 1.29 | G 1.13 | A 0.913 | C 0.884 | N 0.737 | T 1.02 | I 1.01 | H 1.3 | P 1.12 | R 1.03 | Y 0.906 | S 1.06 | D 1.46 | L 1.2 | K 0.899 | E 1.18
T334: L 1.12 | P 0.902 | K 0.794 | N 0.91 | I 0.977 | F 1.25 | M 1.08 | A 0.83 | D 0.352 | V 0.952 | H 0.766 | G 1.23 | Y 1.17 | C 0.7 | W 1.39 | S 0.928 | Q 0.621 | R 1.06
C340: R 1.31 | V 1.42 | Q 1.33 | Y 0.989 | F 0.877 | H 1.46 | N 1.67 | M 1.61 | D 1.7 | K 1.62 | E 1.49 | A 1.65 | W 0.727 | I 1.22 | G 1.44 | P 1.49 | L 1.13 | S 1.52 | T 1.71
V345: I 0.913 | C 1.04 | W 1.52 | D 1.02 | N 0.989 | K 1.22 | T 1.24 | H 0.756
